According to publication PMC6321783 (Cellular signalling, 2018):

Target: T1, HA-ASK1 (Apoptosis Signal-regulating Kinase 1) (UniProt Q99683 1-1374)
T1 sequence (looked up): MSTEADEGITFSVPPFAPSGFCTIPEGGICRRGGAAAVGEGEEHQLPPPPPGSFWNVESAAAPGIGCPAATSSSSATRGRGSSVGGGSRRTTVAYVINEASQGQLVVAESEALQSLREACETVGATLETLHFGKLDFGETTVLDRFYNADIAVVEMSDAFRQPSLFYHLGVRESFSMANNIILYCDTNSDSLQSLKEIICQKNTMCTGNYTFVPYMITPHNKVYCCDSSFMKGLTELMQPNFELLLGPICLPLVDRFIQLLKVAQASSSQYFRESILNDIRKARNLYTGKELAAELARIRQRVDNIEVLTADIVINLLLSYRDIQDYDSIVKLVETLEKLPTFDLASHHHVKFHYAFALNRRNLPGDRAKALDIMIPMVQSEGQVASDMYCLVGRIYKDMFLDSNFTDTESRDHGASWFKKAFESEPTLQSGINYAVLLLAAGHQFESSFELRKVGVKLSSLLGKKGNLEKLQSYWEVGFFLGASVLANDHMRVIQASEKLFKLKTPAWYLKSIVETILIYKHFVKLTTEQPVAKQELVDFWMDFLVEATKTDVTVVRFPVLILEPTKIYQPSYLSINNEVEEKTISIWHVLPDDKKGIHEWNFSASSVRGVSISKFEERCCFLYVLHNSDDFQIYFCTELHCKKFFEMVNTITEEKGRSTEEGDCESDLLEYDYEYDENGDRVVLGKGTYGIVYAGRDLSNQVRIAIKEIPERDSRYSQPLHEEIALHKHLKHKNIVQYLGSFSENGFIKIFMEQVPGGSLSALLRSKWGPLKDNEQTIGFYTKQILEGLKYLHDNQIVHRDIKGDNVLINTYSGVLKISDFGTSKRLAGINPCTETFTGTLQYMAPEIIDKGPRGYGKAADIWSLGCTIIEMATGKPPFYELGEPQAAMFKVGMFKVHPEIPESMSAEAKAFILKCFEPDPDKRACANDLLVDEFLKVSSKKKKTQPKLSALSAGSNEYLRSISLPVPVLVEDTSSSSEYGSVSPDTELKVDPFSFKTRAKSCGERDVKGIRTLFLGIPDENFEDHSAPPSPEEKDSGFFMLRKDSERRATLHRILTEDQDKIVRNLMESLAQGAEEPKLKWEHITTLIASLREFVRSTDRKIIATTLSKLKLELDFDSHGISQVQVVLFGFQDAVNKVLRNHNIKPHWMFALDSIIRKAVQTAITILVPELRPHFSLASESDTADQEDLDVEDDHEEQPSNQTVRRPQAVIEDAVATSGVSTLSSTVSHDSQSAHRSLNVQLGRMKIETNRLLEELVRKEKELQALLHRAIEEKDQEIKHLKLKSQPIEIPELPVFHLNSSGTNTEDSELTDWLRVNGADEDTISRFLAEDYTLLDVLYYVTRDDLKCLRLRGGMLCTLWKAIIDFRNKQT
Assay: co-IP

binding relative to WT arrestin-3: ~0.33 of WT
B1: arrestin-3-(1–366) fragment (expressed in COS7 cells) (domain or fragment, bovine, UniProt P32120-2 1-366, looked up)
chain: MGEKPGTRVFKKSSPNCKLTVYLGKRDFVDHLDKVDPVDGVVLVDPDYLKDRKVFVTLTCAFRYGREDLDVLGLSFRKDLFIANYQAFPPTPNPPRPPTRLQERLLRKLGQHAHPFFFTIPQNLPCSVTLQPGPEDTGKACGVDFEIRAFCAKSLEEKSHKRNSVRLVIRKVQFAPEKPGPQPSAETTRHFLMSDRSLHLEASLDKELYYHGEPLNVNVHVTNNSTKTVKKIKVSVRQYADICLFSTAQYKCPVAQVEQDDQVSPSSTFCKVYTITPLLSNNREKRGLALDGKLKHEDTNLASSTIVKEGANKEVLGILVSYRVKVKLVVSRGGDVSVELPFVLMHPKPHDHIALPRPQSAAPETD
